From patent publication US20180112001A1 (Regeneron, published 2018) come the findings set out here.

The target of assay [1] is T1, human MUC16 (mucin 16), endogenously expressed on cells (human).
T1 construct: Endogenous MUC16 on OVCAR-3 / OVCAR3-Luc / PEO-1 / HPAC cells; also called hMUC16
The assay can be described thus: MSD electrochemiluminescence cell binding; RLU ratio OVCAR-3/SK-OV-3; Ab 16.7 nM; NS = Non-Specific, ratio <2.5-fold.

The target of assay [2] is T2, soluble monomeric human MUC16, truncated format encompassing the last five SEA domains of Mucin-16 (human).
T2 construct: also called hMUC16.mmh; MUC16 "nub"
T2 chain: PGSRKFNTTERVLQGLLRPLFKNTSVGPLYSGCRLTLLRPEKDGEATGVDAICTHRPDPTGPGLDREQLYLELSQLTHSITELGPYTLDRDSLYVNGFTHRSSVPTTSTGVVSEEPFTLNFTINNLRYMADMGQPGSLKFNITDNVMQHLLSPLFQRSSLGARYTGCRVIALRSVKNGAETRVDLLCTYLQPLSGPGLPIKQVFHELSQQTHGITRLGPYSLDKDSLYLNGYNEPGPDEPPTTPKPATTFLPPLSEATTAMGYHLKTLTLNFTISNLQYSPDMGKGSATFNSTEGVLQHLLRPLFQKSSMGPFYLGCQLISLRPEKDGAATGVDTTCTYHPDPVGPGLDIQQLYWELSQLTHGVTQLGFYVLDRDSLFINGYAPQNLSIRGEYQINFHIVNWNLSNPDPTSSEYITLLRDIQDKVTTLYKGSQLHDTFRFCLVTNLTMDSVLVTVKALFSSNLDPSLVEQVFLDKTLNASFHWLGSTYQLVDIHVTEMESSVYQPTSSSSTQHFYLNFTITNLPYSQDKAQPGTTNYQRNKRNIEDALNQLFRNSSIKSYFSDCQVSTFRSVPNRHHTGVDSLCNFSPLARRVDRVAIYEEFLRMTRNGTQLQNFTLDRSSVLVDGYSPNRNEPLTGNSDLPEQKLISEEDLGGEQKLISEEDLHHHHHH
The assay is described as follows: SPR Biacore, antibody captured, soluble monomeric hMUC16.mmh injected, 25C. Background: SPR reads the build-up and loss of mass on a sensor chip optically.

Assay [3] deals with T1, human MUC16 (mucin 16), endogenously …. The assay is described as follows: MSD electrochemiluminescence cell binding; RLU ratio OVCAR-3/SK-OV-3; Ab 1.9 nM.
The next assay deals with mouse CD3 (mouse, UniProt P22646 22-108). The assay can be described thus: not described (statement in the pharmacokinetic example).
The target in assay [4] is T3, cynomolgus monkey CD3 on cynomolgus T cells (cynomolgus monkey, UniProt Q95LI5 22-198).
T3 construct: whole, on cells; also called cynomolgus CD3
The assay is described as follows: FACS binding titration on cynomolgus T cells. Background: Flow cytometry measures light scatter and fluorescence of single cells or particles in a stream.

The target in assay [5] is T1, human MUC16 (mucin 16), endogenously …. The assay can be described thus: FACS binding titration on PEO-1 (MUC16+) cells.
The target is the same in assay [6]. The assay is described as follows: FACS binding titration on OVCAR3-Luc (MUC16+) cells.
Assay [7] shares this target. The assay can be described thus: cell-based or functional assay.
Assay [8] has as its target T2, soluble monomeric human MUC16, …. The assay can be described thus: SPR Biacore, antibody captured, soluble monomeric hMUC16.mmh injected, 25C.
The target of assay [9] is T1, human MUC16 (mucin 16), endogenously …. The assay can be described thus: cell-based or functional assay. This is another data set of the same source.
For assay [10], the target named is T3, cynomolgus monkey CD3 on cynomolgus T …. The assay is described as follows: FACS titration of cynomolgus T cells.
The target in assay [11] is T4, human CD3 on cells (Jurkat cells, human T cells) (human, UniProt P07766 23-207; P04234 22-171).
T4 construct: on cells CD3 is part of the TCR complex; also called hCD3
The assay is described as follows: FACS titration of Jurkat cells.

Assay [12] deals with T4, human CD3 on cells (Jurkat cells, human …). The assay is described as follows: cell-based or functional assay.
Assay [13] deals with T1, human MUC16 (mucin 16), endogenously …. The assay is described as follows: cell-based or functional assay. This is another data set of the same source.
Assay [14] shares this target. The assay is described as follows: FACS binding titration on OVCAR3 (MUC16+) cells.
Assay [15] addresses T4, human CD3 on cells (Jurkat cells, human …). The assay is described as follows: FACS binding titration on Jurkat cells.
Assay [16] has the same target. The assay is described as follows: cell-based or functional assay. The source holds these as a separate data set.
For assay [17] the target is unchanged. The assay can be described thus: FACS binding titration on Jurkat cells. This is another data set of the same source.
For assay [18] the target is unchanged. The assay is described as follows: cell-based or functional assay. The source holds these as a separate data set.

Read-outs that look alike come from different tables or passages of the source. Bounds are passed on as bounds.

T4 sequence (P07766 23-207 limits assumed, chain 1 of 2): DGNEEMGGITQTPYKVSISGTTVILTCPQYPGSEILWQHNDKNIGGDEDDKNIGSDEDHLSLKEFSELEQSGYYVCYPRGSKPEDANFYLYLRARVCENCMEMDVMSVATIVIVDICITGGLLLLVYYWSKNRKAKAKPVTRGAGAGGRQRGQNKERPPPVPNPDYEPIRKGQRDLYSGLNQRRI
T4 sequence (P04234 22-171 limits assumed, chain 2 of 2): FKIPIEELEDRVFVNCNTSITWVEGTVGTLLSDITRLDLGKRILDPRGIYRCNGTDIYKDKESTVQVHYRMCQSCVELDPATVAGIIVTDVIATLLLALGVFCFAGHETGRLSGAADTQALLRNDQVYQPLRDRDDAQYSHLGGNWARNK
T3 sequence (Q95LI5 22-198): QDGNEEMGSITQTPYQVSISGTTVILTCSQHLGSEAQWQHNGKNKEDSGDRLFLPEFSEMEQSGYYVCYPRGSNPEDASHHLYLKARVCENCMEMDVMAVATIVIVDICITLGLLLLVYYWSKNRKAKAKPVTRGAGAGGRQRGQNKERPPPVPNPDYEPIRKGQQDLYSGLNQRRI
mouse CD3, sequence (P22646 22-108): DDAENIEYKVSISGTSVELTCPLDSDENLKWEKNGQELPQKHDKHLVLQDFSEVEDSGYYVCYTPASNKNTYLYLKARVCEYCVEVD

B1: H1H8808P (antibody, human IgG1, V domains shown)
VH: QVQLVESGGGVVQPGRSLRLSCVASGFTFSNYGIHWVRQAPGKGLEWVAVISDDGSFKFYADSVKGRFTISRDNSKNTLYLQMNSLRVEDSAVYHCAKWQHNWNDGGFDYWGQGTLVTVSS
VL: EIVLTQSPDTLSLSPGERATLSCRASQSLSSNYLAWYRQKPGQAPRLLIYGISSRATGIPDRFSGSGSGTDFTLTISRLEPEDFAVYYCQQYGSSPWTFGQGTKVEIK
notes: Human IgG1 (H1H)
As for B1, the “Ratio: anti-MUC16 Binding OVCAR-3/SK-OV-3” value in assay [1] was below 2.5 ratio. Besides, in [2], binding was characterised by a dissociation constant (Kd) of 52.4 nM, the koff is 0.000216 s⁻¹, the kon amounted to 4120 M⁻¹ s⁻¹ and the “t1/2” value turned out to be 54 min. For the same molecule, the “Ratio: anti-MUC16 Binding OVCAR-3/SK-OV-3” value in assay [3] is 4 ratio.

B2: BSMUC16/CD3-005 (bispecific antibody, V domains shown)
VH 1: QVQLVESGGGLVKPGGSLRLSCAASGFTFSNYYMSWVRQAPGKGLEWISYISGRGSTIFYADSVKGRITISRDNAKNSLFLQMNSLRAEDTAVYFCVKDRGGYSPYWGQGTLVTVSS
VH 2: EVQLVESGGGLVQPGRSLRLSCAASGFTFDDYSMHWVRQAPGKGLEWVSGISWNSGSIGYADSVKGRFTISRDNAKNSLYLQMNSLRAEDTALYYCAKYGSGYGKFYYYGMDVWGQGTTVTVSS
VL: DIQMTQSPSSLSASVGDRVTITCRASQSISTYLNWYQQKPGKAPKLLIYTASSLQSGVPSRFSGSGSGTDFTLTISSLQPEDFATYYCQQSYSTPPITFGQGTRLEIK
notes: Anti-MUC16 VH (H1H8767P), anti-CD3 VH (CD3-VH-G20), common light chain; also called REGN4019; anti-MUC16xCD3 bispecific antibody with CD3-VH-G20 arm
Take B2: the binding result with mouse CD3 was “no binding”. In addition, the concentration for a half-maximal effect (EC50) in [4] turned out to be 1170 nM. Besides, the concentration giving a half-maximal response (EC50) in [5] was found to be 2.63 nM. The molecule further returned an EC50 in assay [6] of 1.47 nM. Besides, in [7], the “PEO-1 cell depletion EC50” value was 0.0774 nM. Moreover, in assay [8], the Kd is 6 nM, the off-rate (koff) was determined as 0.000564 s⁻¹, the association rate constant (kon) turned out to be 94100 M⁻¹ s⁻¹ and the “t ½” value stood at 21 min. Further, the “OVCAR3-Luc cell depletion EC50” value in assay [9] is 0.0516 nM.

B3: H1H8767P (antibody, human IgG1, V domains shown)
VH: QVQLVESGGGLVKPGGSLRLSCAASGFTFSNYYMSWVRQAPGKGLEWISYISGRGSTIFYADSVKGRITISRDNAKNSLFLQMNSLRAEDTAVYFCVKDRGGYSPYWGQGTLVTVSS
VL: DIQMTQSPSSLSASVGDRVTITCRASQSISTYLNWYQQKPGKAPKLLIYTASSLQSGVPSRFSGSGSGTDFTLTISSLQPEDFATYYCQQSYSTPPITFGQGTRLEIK
notes: Human IgG1 (H1H)
In the case of B3, the “Ratio: anti-MUC16 Binding OVCAR-3/SK-OV-3” value in assay [1] is below 2.5 ratio. Moreover, in assay [2], the affinity, expressed as Kd, was 3.58 nM; the koff is 0.000418 s⁻¹; the kon was determined as 117000 M⁻¹ s⁻¹; the “t1/2” value turned out to be 28 min. Also, the “Ratio: anti-MUC16 Binding OVCAR-3/SK-OV-3” value in assay [3] is 4 ratio.

B4: CD3-VH-P (anti-CD3 antibody) (antibody, V domains shown)
VH: EVQLVESGGGLVQPGRSLRLSCVASGFTFDDYSMHWVRQAPGKGLEWVSGISWNSGSKDYADSVKGRFTISRDNAKNSLYLQMNSLRAEDTALYYCAKYGSGYGKFYHYGLDVWGQGTTVTVSS
VL: DIQMTQSPSSLSASVGDSVTITCRASQSINNYLNWYQQKPGKAPKLLIYTASSLLSGVPSRFSGSGSGTDFTLTISGLHPEDFATYFCQQSFSTPPITFGQGTRLDIK
As for B4, the EC50 in [10] and in [11] was 1 to 40 nM each time.

B5: BSMUC16/CD3-002 (bispecific antibody, V domains shown)
VH 1: QVQLVESGGGLVKPGGSLRLSCAASGFTFSNYYMSWVRQAPGKGLEWISYISGRGSTIFYADSVKGRITISRDNAKNSLFLQMNSLRAEDTAVYFCVKDRGGYSPYWGQGTLVTVSS
VH 2: EVQLVESGGGLVQPGRSLRLSCAASGFTFDDYSMHWVRQAPGKGLEWVSGISWNSGSIGYADSVKGRFTISRDNAKNSLYLQMNSLRAEDTALYYCAKDGSGYGKFYYYGMDVWGQGTTVTVSS
VL: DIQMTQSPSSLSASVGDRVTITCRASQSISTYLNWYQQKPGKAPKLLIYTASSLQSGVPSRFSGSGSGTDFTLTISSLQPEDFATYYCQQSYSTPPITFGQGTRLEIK
notes: Anti-MUC16 VH (H1H8767P), anti-CD3 VH (CD3-VH-G5), common light chain; also called anti-MUC16xCD3 bispecific antibody with CD3-VH-G5 arm
For B5, the “T cell activation (CD69 upregulation) EC50” value in assay [12] worked out at 0.0101 nM. In addition, the “OVCAR3 cell depletion EC50” value in assay [13] was found to be 0.0306 nM. Further, the EC50 in [14] stood at 2.69 nM; in assay [15], 301 nM; in assay [5], 3.13 nM. In addition, the binding result in [4] was “no binding (tested: serial dilution from 66.6 nM to 0.001 nM)”. The “T cells activation (CD25 upregulation) EC50” value in assay [16] turned out to be 0.0889 nM. Further, the “T cells activation (CD69 upregulation) EC50” value in assay [16] was 0.0134 nM. In assay [7], the “PEO-1 cell depletion EC50” value is 0.0675 nM.

B6: BSMUC16/CD3-001 (bispecific antibody, V domains shown)
VH 1: QVQLVESGGGLVKPGGSLRLSCAASGFTFSNYYMSWVRQAPGKGLEWISYISGRGSTIFYADSVKGRITISRDNAKNSLFLQMNSLRAEDTAVYFCVKDRGGYSPYWGQGTLVTVSS
VH 2: EVQLVESGGGLVQPGRSLRLSCAASGFTFDDYSMHWVRQAPGKGLEWVSGISWNSGSKGYADSVKGRFTISRDNAKNSLYLQMNSLRAEDTALYYCAKYGSGYGKFYHYGLDVWGQGTTVTVSS
VL: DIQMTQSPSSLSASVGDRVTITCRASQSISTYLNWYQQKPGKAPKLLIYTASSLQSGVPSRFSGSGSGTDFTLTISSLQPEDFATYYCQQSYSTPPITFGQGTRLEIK
notes: Anti-MUC16 VH (H1H8767P), anti-CD3 VH (CD3-VH-G), common light chain; also called anti-MUC16xCD3 bispecific antibody with CD3-VH-G arm
With B6, the binding result in the assay with mouse CD3 is “no binding”. Further, in [12], the “T cell activation (CD69 upregulation) EC50” value worked out at 0.00588 nM. The “OVCAR3 cell depletion EC50” value in [13] amounted to 0.0224 nM. For the same molecule, the EC50 in [14] came to 1.2 nM; in assay [17], 3.21 nM; in [15], 6.44 nM; in assay [4], 15.6 nM; in [5], 3.02 nM; in assay [6], 1.32 nM. For the same molecule, the “T cells activation (CD25 upregulation) EC50” value in [16] is 0.039 nM; in assay [18] it was 0.0306 nM. Also, the entries for the “T cells activation (CD69 upregulation) EC50” value in [16] and in [18] were 0.00834 nM and 0.00298 nM, respectively. The “PEO-1 cell depletion EC50” value in [7] is 0.0256 nM. In assay [8], the Kd is 6.18 nM. Moreover, the koff in assay [8] was found to be 0.000586 s⁻¹. This molecule registered a kon in assay [8] of 94800 M⁻¹ s⁻¹. In addition, the “t ½” value in [8] stood at 20 min. For the same molecule, in [9], the “OVCAR3-Luc cell depletion EC50” value amounted to 0.0154 nM.

What is called Kd is the concentration at which binding is half-saturated. For orientation: koff means the first-order rate constant of dissociation. What is called kon is a measure of how fast the partners come together. A word on the EC50: it is the concentration giving half of the maximal effect.
